Source: publication PMC6709600 (Nature, 2019)

Experiments:
[1] = biological target: the molecule itself; test: cryo-EM structure
[2] = biological target: the molecule itself; test: crystal structure

| Protein | binding result [1] | binding result [2] |
| --- | --- | --- |
| full-length mGlu5, HA-FLAG-human mGlu5 (21-865) with a C-terminal hexahistidine tag (receptor) QSSERRVVAHMPGDIIIGALFSVHHQPTVDKVHERKCGAVREQYGIQRVEAMLHTLERINSDPTLLPNITLGCEIRDSCWHSAVALEQSIEFIRDSLISSEEEEGLVRCVDGSSSSFRSKKPIVGVIGPGSSSVAIQVQNLLQLFNIPQIAYSATSMDLSDKTLFKYFMRVVPSDAQQARAMVDIVKRYNWTYVSAVHTEGNYGESGMEAFKDMSAKEGICIAHSYKIYSNAGEQSFDKLLKKLTSHLPKARVVACFCEGMTVRGLLMAMRRLGLAGEFLLLGSDGWADRYDVTDGYQREAVGGITIKLQSPDVKWFDDYYLKLRPETNHRNPWFQEFWQHRFQCRLEGFPQENSKYNKTCNSSLTLKTHHVQDSKMGFVINAIYSMAYGLHNMQMSLCPGYAGLCDAMKPIDGRKLLESLMKTNFTGVSGDTILFDENGDSPGRYEIMNFKEMGKDYFDYINVGSWDNGELKMDDDEVWSKKSNIIRSVCSEPCEKGQIKVIRKGEVSCCWTCTPCKENEYVFDEYTCKACQLGSWPTDDLTGCDLIPVQYLRWGDPEPIAAVVFACLGLLATLFVTVVFIIYRDTPVVKSSSRELCYIILAGICLGYLCTFCLIAKPKQIYCYLQRIGIGLSPAMSYSALVTKTNRIARILAGSKKKICTKKPRFMSACAQLVIAFILICIQLGIIVALFIMEPPDIMHDYPSIREVYLICNTTNLGVVTPLGYNGLLILSCTFYAFKTRNVPANFNEAKYIAFTMYTTCIIWLAFVPIYFGSNYKIITMCFSVSLSATVALGCMFVPKVYIILAKPERNVRSAFTTSTVVRMHVGDGKSSSAASRSSSLVNL | binds | – |
| mGlu5 ECD (residues 21-569 of wild-type human metabotropic glutamate receptor subtype 5) (domain or fragment) QSSERRVVAHMPGDIIIGALFSVHHQPTVDKVHERKCGAVREQYGIQRVEAMLHTLERINSDPTLLPNITLGCEIRDSCWHSAVALEQSIEFIRDSLISSEEEEGLVRCVDGSSSSFRSKKPIVGVIGPGSSSVAIQVQNLLQLFNIPQIAYSATSMDLSDKTLFKYFMRVVPSDAQQARAMVDIVKRYNWTYVSAVHTEGNYGESGMEAFKDMSAKEGICIAHSYKIYSNAGEQSFDKLLKKLTSHLPKARVVACFCEGMTVRGLLMAMRRLGLAGEFLLLGSDGWADRYDVTDGYQREAVGGITIKLQSPDVKWFDDYYLKLRPETNHRNPWFQEFWQHRFQCRLEGFPQENSKYNKTCNSSLTLKTHHVQDSKMGFVINAIYSMAYGLHNMQMSLCPGYAGLCDAMKPIDGRKLLESLMKTNFTGVSGDTILFDENGDSPGRYEIMNFKEMGKDYFDYINVGSWDNGELKMDDDEVWSKKSNIIRSVCSEPCEKGQIKVIRKGEVSCCWTCTPCKENEYVFDEYTCKACQLGSWPTDDLTGCDLIP | – | binds |
